In the supplement of paper PMC10598134 one finds collision cross section data, which are given here for 56 sequences.

± gives the standard deviation.

A short description of the data set: collision cross section of modified peptide (TIMS, N2, iRT-aligned); higher = larger / more extended gas-phase ion. In short, it runs like this:
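On a timsTOF Pro/HT (dda-PASEF, nitrogen, ~2.4 mbar), synthetic peptide pools were analysed after a 120-min nanoflow C18 separation at 60 °C and identified in MaxQuant. Three reference ions served for 1/K0 calibration, with run-wise alignment to the median iRT peptide deviation. Collision cross section comes from the Mason-Schamp equation, using the most abundant feature per charge state averaged over 1–3 technical replicates.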

[1] abbreviates: charge state: 2, modification: Acetyl (K).
Where [2] appears, read: charge state: 2, modification: Nitro (Y).
Where [3] appears, read: charge state: 3, modification: Nitro (Y).
Where [4] appears, read: charge state: 2, modification: Crotonyl.
The mark [5] stands for this setting: charge state: 3, modification: Crotonyl.
Setting [6] is: charge state: 2, modification: Hydroxyproline.
Where [7] appears, read: charge state: 3, modification: Hydroxyproline.
Setting [8] is: charge state: 2, modification: Trimethyl (K).
Setting [9] is: charge state: 3, modification: Trimethyl (K).
Where [10] appears, read: charge state: 2, modification: Biotin.
Where [11] appears, read: charge state: 3, modification: Biotin.
[12] abbreviates: charge state: 2, modification: Formyl.
Setting [13] is: charge state: 2, modification: Methyl (R).
The mark [14] stands for this setting: charge state: 3, modification: Methyl (R).
Where [15] appears, read: charge state: 2, modification: Propionyl.
The mark [16] stands for this setting: charge state: 2, modification: HexNAc (ST).
Setting [17] is: charge state: 3, modification: Acetyl (K).
The mark [18] stands for this setting: charge state: 2, modification: Glutarylation.
Where [19] appears, read: charge state: 2, modification: hydroxyisobutyryl.
[20] abbreviates: charge state: 2, modification: Butyryl.
The mark [21] stands for this setting: charge state: 2, modification: GlyGly (K).
[22] abbreviates: charge state: 3, modification: GlyGly (K).
Where [23] appears, read: charge state: 2, modification: Methyl (K).
[24] abbreviates: charge state: 3, modification: Methyl (K).
Where [25] appears, read: charge state: 2, modification: Succinyl.
Where [26] appears, read: charge state: 3, modification: Succinyl.

“LGVATVAKGVCGACK [_LGVATVAK(Acetyl (K))GVCGACK_]” registered a collision cross section under setting [1] of 413.53 ± 0.49 Å².
Consider HIGFVYHPTK [_HIGFVY(Nitro (Y))HPTK_], for which the collision cross section turned out to be 375.77 ± 0.17 Å² under setting [2] and 448.27 ± 1.8 Å² under setting [3].
For “DTPTSAGPNSFNKGK [_DTPTSAGPNSFNK(Crotonyl)GK_]”, the collision cross section reads like this: under setting [4], 412.68 ± 0.55 Å²; under setting [5], 462.19 Å².
For the sequence “GDKGDAGEPGR [_GDKGDAGEP(Hydroxyproline)GR_]”, the collision cross section amounted to 331.51 ± 0.55 Å² under setting [6] and 414.61 ± 0.42 Å² under setting [7].
In turn, “SPDEAYAIAKK [_SPDEAYAIAK(Trimethyl (K))K_]” came in with a collision cross section under setting [8] of 381.12 ± 1.2 Å² and a collision cross section under setting [9] of 449.09 Å².
Sequence LQEKVESAQSEQK [_LQEK(Biotin)VESAQSEQK_] yielded a collision cross section under setting [10] of 433.03 ± 0.23 Å² and a collision cross section under setting [11] of 526.98 ± 0.34 Å².
On to GQQGEPGPK [_GQQGEP(Hydroxyproline)GPK_], for which the collision cross section under setting [6] turned out to be 313.43 ± 0.56 Å².
On to ITASLCDLKSR [_ITASLCDLK(Formyl)SR_], for which, under setting [12], the collision cross section was determined as 378.38 Å².
Turning to LEQVEKELLR [_LEQVEK(Acetyl (K))ELLR_], the collision cross section under setting [1] worked out at 385.81 ± 0.48 Å².
Consider GGGFGAHGRGR [_GGGFGAHGR(Methyl (R))GR_], for which the collision cross section is, setting by setting: under setting [13], 351.67 ± 1.1 Å²; under setting [14], 421.56 ± 5.3 Å².
IQTKAGEATVK [_IQTK(Propionyl)AGEATVK_]: the collision cross section under setting [15] is listed as 369.17 ± 0.33 Å².
Consider “ITESVAETAQTIKK [_ITESVAET(HexNAc (ST))AQTIKK_]”, for which the collision cross section is on record as 456.71 ± 0.56 Å² under setting [16] and 499.78 ± 0.18 Å² (charge state: 3, modification: HexNAc (ST)).
For “GTVPDDAVEALADSLGKK [_GTVPDDAVEALADSLGK(Acetyl (K))K_]”, the collision cross section is, setting by setting: under setting [1], 449.76 ± 3.1 Å²; under setting [17], 527.69 ± 0.69 Å².
On to “YGRGQLNYPLPDFSK [_YGR(Citrullination (R))GQLNYPLPDFSK_]”, for which the collision cross section (charge state: 2, modification: Citrullination (R)) was found to be 439.93 ± 0.95 Å² and the collision cross section (charge state: 3, modification: Citrullination (R)) is listed as 492.79 Å².
“VGVEVPDVNIEGPEGKLK [_VGVEVPDVNIEGPEGK(Gluratylation)LK_]” had a collision cross section under setting [18] of 461.98 ± 1.5 Å² and a collision cross section (charge state: 3, modification: Glutarylation) of 531 ± 29 Å².
As for “VDIDVPDVNIEGPDAKLK [_VDIDVPDVNIEGPDAK(Acetyl (K))LK_]”, the collision cross section under setting [1] turned out to be 477.46 ± 4.2 Å².
In the case of “TGGTQTDLFTCGKCK [_TGGTQTDLFTCGK(Malonyl)CK_]”, the collision cross section (charge state: 2, modification: Malonyl) is 436.14 ± 0.67 Å².
TPNLYIYSKK [_TPNLYIYSK(Biotin)K_] had a collision cross section under setting [10] of 409.6 Å².
Consider “LEQVEKELLR [_LEQVEK(hydroxyisobutyryl)ELLR_]”, for which the collision cross section under setting [19] was determined as 394.74 ± 0.29 Å².
IQQELQTAKK [_IQQELQTAK(Dimethyl (K))K_]: the collision cross section is given as 374.44 ± 1.1 Å² (charge state: 2, modification: Dimethyl (K)) and 426.86 ± 2.1 Å² (charge state: 3, modification: Dimethyl (K)).
Under setting [20], “SDSGKPYYYNSQTK [_SDSGK(Butyryl)PYYYNSQTK_]” had a collision cross section of 426.68 ± 0.77 Å².
With “VQGGALEDSQLVAGVAFKK [_VQGGALEDSQLVAGVAFK(GlyGly (K))K_]”, the collision cross section reads like this: under setting [21], 504.45 ± 0.061 Å²; under setting [22], 565.73 ± 1.7 Å².
As for “SDSGKPYYYNSQTK [_SDSGK(Biotin)PYYYNSQTK_]”, the collision cross section under setting [10] is recorded as 440.01 ± 0.23 Å².
VFSIISSEKELK [_VFSIISSEK(Crotonyl)ELK_]: the collision cross section under setting [4] came to 412.67 ± 0.34 Å².
Take LEKTIDDLEEK [_LEK(Methyl (K))TIDDLEEK_]: the collision cross section under setting [23] is reported as 405.66 ± 1.3 Å² and the collision cross section under setting [24] was 473.34 ± 3.6 Å².
For “LLEQKTQESQK [_LLEQK(Trimethyl (K))TQESQK_]”, the collision cross section runs as follows: under setting [8], 409.98 ± 2.2 Å²; under setting [9], 452.07 ± 1.5 Å².
SKHLQEQLNELK [_SK(Succinyl)HLQEQLNELK_]: the collision cross section was 419.21 ± 1.5 Å² under setting [25] and 481.12 ± 2 Å² under setting [26].
Consider “GETASKLQSEISR [_GETASK(Crotonyl)LQSEISR_]”, for which the collision cross section by setting is: under setting [4], 388.79 ± 0.79 Å²; under setting [5], 466.94 ± 1.6 Å².
Turning to “VPTTEKPTVTVNFR [_VPTTEK(Butyryl)PTVTVNFR_]”, the collision cross section by setting is: under setting [20], 428.57 ± 0.24 Å²; (charge state: 3, modification: Butyryl) 508.36 ± 2.4 Å².
In the case of “VFSIISSEKELK [_VFSIISSEK(GlyGly (K))ELK_]”, the collision cross section by setting is: under setting [21], 424.98 ± 0.97 Å²; under setting [22], 493.89 ± 2 Å².
For the sequence “DDSFLGKLGGTLAR [_DDSFLGK(Acetyl (K))LGGTLAR_]”, the collision cross section stood at 410.51 ± 1.7 Å² under setting [1] and 489.73 Å² under setting [17].
For “TFGKAAGPSLSHTSGGTQSK [_TFGK(Formyl)AAGPSLSHTSGGTQSK_]”, the collision cross section by setting is: under setting [12], 488.52 ± 0.72 Å²; (charge state: 3, modification: Formyl) 508.22 ± 1.5 Å².
On to “SSGPGGQNVNKVNSK [_SSGPGGQNVNK(Acetyl (K))VNSK_]”, for which the collision cross section under setting [1] came to 401.59 ± 1.4 Å² and the collision cross section under setting [17] was 440.11 ± 2.5 Å².
As for GEIGPPGPR [_GEIGPP(Hydroxyproline)GPR_], the collision cross section under setting [6] is given as 319.92 ± 1.1 Å².
As for DHLSDKESK [_DHLSDK(Biotin)ESK_], the collision cross section by setting is: under setting [10], 368.95 Å²; under setting [11], 429.55 Å².
With “SLYASSPGGVYATR [_SLYAS(HexNAc (ST))SPGGVYATR_]”, under setting [16], the collision cross section is on record as 421.13 ± 0.62 Å².
Take “ANEKTESSSAQQVAVSR [_ANEK(Trimethyl (K))TESSSAQQVAVSR_]”: the collision cross section under setting [9] is on record as 495.46 ± 1.6 Å².
“GNDISSGTVLSDYVGSGPPKK [_GNDISSGTVLSDY(Nitro (Y))VGSGPPKK_]” returned a collision cross section under setting [3] of 549.52 Å².
Turning to PSVSTKLISK [_PSVSTK(Methyl (K))LISK_], the collision cross section turned out to be 356.57 ± 0.35 Å² under setting [23] and 424.71 ± 5.3 Å² under setting [24].
Consider SYHLQIVTK [_SY(Nitro (Y))HLQIVTK_], for which the collision cross section is listed as 345.14 ± 0.74 Å² under setting [2] and 449.3 ± 1.2 Å² under setting [3].
TLDEILQEKK [_TLDEILQEK(Methyl (K))K_] yielded a collision cross section under setting [23] of 377.9 ± 1.7 Å² and a collision cross section under setting [24] of 432.26 ± 5.2 Å².
Regarding “VGIDTPDIDIHGPEGKLK [_VGIDTPDIDIHGPEGK(Trimethyl (K))LK_]”, the collision cross section under setting [9] was 543.29 ± 0.9 Å².
As to “IHNAENIQPGEQKYEYK [_IHNAENIQPGEQK(Malonyl)YEYK_]”, the collision cross section (charge state: 3, modification: Malonyl) was 527.67 ± 2.8 Å².
Take “DASTLQSQKAEGTGDAK [_DASTLQSQK(GlyGly (K))AEGTGDAK_]”: the collision cross section is, setting by setting: under setting [21], 451.81 ± 1.4 Å²; under setting [22], 505.67 ± 1.1 Å².
Consider ASAISIKLGSSK [_ASAISIK(Succinyl)LGSSK_], for which the collision cross section under setting [25] worked out at 372.2 ± 0.24 Å².
In the case of VIVGGSSEYK [_VIVGGSSEY(Phospho (Y))K_], under “charge state: 2, modification: Phospho (Y)”, the collision cross section is 358.71 ± 0.065 Å².
Consider “DSSPTTNSKLSALQR [_DSSPTTNSK(Propionyl)LSALQR_]”, for which the collision cross section is, setting by setting: under setting [15], 430.82 ± 2.1 Å²; (charge state: 3, modification: Propionyl) 498.95 Å².
TTEETSKPK [_TTEETSK(Trimethyl (K))PK_] displayed a collision cross section under setting [8] of 342 ± 0.055 Å².
Consider “AAYQAAIRGVGSAQSR [_AAYQAAIR(Methyl (R))GVGSAQSR_]”, for which the collision cross section by setting is: under setting [13], 442.78 ± 1 Å²; under setting [14], 510.48 ± 1.7 Å².
For “RGFGFGGFAISAGK [_R(Methyl (R))GFGFGGFAISAGK_]”, the collision cross section under setting [14] is on record as 488.52 ± 3.4 Å².
For “VGEFSGANKEK [_VGEFSGANK(Gluratylation)EK_]”, the collision cross section under setting [18] came out at 364.67 ± 0.089 Å².
“LLEQKTQESQK [_LLEQK(hydroxyisobutyryl)TQESQK_]”: under setting [19], the collision cross section was 401.39 ± 0.81 Å².
Sequence “DYSSGFGGKYGVQADR [_DYSSGFGGK(Biotin)YGVQADR_]” showed a collision cross section under setting [10] of 450.72 ± 0.16 Å² and a collision cross section under setting [11] of 509.9 ± 0.34 Å².
Consider “DDSFLGKLGGTLAR [_DDSFLGK(hydroxyisobutyryl)LGGTLAR_]”, for which the collision cross section is given as 418.74 ± 0.55 Å² under setting [19] and 495.38 ± 2.8 Å² (charge state: 3, modification: hydroxyisobutyryl).
Regarding “YTAILNQIPSHSSSIR [_YTAILNQIP(Hydroxyproline)SHSSSIR_]”, the collision cross section runs as follows: under setting [6], 473.92 ± 0.82 Å²; under setting [7], 518.79 ± 6.1 Å².
In turn, “VFIGNLNTLVVKK [_VFIGNLNTLVVK(Succinyl)K_]” showed a collision cross section under setting [25] of 423.07 ± 0.53 Å² and a collision cross section under setting [26] of 489.97 ± 1.6 Å².
